Measurements from patent US20090163410A1, “Novel Peptides and the Biological Use Thereof” (priority 2005, published 2009).
pIC50: −log10 of the molar value.

Key:
[1] = biological target: peptide-phage 07B2S3 (fd phage) (UniProt P03661)
[2] = biological target: peptide-phage 08B2S3 (fd phage) (UniProt P03661)
[3] = biological target: HIV-1 (Lai) Nef/SH3-Hck interaction (Human immunodeficiency virus type 1 group M subtype B, UniProt P03406); details: for repression of the Nef-SH3 interaction as measured in the cell assay: COS-7 cells (FIG. 5B)
From the text: This assay makes it possible to integrate the cellular toxicity and bioavailability parameters by means of quantitative and functional reading of the interaction between two protein partners.
The Checkmate™ commercial system (Promega) was adapted to the HIV-1 (Lai) Nef/SH3-Hck pair in COS-7 cell culture (FIG. 5). This system combines the expression of firefly luciferase under the control of the interaction between Nef and the SH3 domain of Hck, and the expression, which is independent, of renilla luciferase, a control for cell viability. The ratio of the intensity of these two luciferases makes it possible to quantify the activity of a Nef-SH3-interaction competitor capable of penetrating into the cell and the half-life of which is sufficient over the time period of the analysis. Other protein interactions are also reconstituted in this assay: one, which is non-SH3 (between Id and MyoD), in order to exclude the compounds having a nonspecific activity on the luciferase expression, and the other between SH3 of Hck and the SAM68 protein, in order to identify the compounds which interact via the SH3 domain and not via Nef.
The cells are transferred using Fugene6 (Roche), according to the distributor's protocol. Briefly, the plasmids PG5 (300 ng), pAct or pActNef (400 ng), pBindHckmutated or pBindHck (100 ng) and pbcks (200 ng) are mixed, and then the Fugene 6 (3 μl diluted in 100 μl of DMEM culture medium) is added. The plasmids/Fugene6 mixture is left to react for a period of 15 min at ambient temperature, and is then deposited dropwise into the cell culture well.
After expression for 24H, the cells are harvested by treatment with trypsin (Gibco, ref 25300-054), washed, and then dispensed into 96-well plates (reference 353072, Beckton Dickinson). 50 μl of DMEM culture medium are then added to each well.
The activity of a candidate inhibitor compound is tested by adding 25 μl of this diluted compound to the well already containing 50 μl of the cell culture, and the luciferase activity is determined 24 H later in each well using the DualGlo assay kit according to the recommendations of the supplier (Promega).

Substance | repression of the Nef-SH3 interaction as measured in the cell assay [3] | other results
NefΔ1-57 protein (Nef HIV-1 LAI, residues 1 to 57 deleted) (from UniProt P03406 58-206) | – | pIC50 [1]: 6.00; pIC50 [2]: 6.00
R Ahx R Ahx R Ahx R Ahx R Ahx R Ahx R W P A W L P [SEQ ID No. 19] | repress the Nef-SH3 interaction as measured in the cell assay, in a dose-dependent manner | –
R Q I K I W F Q N R Nle K W K K [SEQ ID No. 15] | repress the Nef-SH3 interaction as measured in the cell assay, in a dose-dependent manner | –
R R R R R R R R W P A W L P [SEQ ID No. 17] | repress the Nef-SH3 interaction as measured in the cell assay, in a dose-dependent manner | –
W P A W L P (WPAWLP) [SEQ ID No. 11] | – | biological activity on the Nef-SH3 interaction (firefly/renilla luciferase ratio) ([3]; COS-7 cells, 10 to 50 μM of the peptide, compared with a control molecule, various times and periods of addition (FIG. 5B)): does not show any notable biological activity at low concentration
